{"source": "paper PMC10680758", "target": "T1, eIF4G (unlabeled) (Saccharomyces cerevisiae, UniProt P39935 1-952)", "T1 sequence": "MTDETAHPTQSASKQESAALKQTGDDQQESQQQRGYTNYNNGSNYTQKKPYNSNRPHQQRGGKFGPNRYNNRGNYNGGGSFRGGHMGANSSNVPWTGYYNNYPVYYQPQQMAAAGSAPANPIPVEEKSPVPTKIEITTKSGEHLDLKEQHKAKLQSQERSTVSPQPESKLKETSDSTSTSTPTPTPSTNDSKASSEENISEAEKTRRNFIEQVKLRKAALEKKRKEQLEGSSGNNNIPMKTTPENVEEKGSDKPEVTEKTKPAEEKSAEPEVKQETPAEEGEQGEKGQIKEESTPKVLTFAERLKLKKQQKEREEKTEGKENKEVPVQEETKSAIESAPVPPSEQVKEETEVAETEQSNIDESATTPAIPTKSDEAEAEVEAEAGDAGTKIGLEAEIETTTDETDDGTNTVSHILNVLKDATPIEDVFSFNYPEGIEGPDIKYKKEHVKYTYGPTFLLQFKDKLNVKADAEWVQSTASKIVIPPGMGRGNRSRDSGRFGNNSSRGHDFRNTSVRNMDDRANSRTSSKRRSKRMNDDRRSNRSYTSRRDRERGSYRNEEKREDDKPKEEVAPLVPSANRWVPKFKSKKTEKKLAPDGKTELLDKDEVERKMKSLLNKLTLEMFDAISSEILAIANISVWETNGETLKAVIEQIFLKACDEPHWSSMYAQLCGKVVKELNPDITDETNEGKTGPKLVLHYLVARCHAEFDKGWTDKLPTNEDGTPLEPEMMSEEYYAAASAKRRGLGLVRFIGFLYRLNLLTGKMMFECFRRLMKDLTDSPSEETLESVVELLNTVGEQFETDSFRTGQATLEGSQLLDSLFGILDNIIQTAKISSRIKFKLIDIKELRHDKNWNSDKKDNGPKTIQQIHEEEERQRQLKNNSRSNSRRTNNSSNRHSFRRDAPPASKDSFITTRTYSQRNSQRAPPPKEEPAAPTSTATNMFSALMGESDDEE", "experiment": "fluorescence anisotropy", "data": [{"binder": "rpl41a 51mer-FAM (ssRNA) RNA: GGAGACCACAUCGAUUCAAUCGAAAUGAGAGCCAAGUGGAGAAAGAAGAGA", "values": [{"measurement": "binding result", "result": "binds"}]}]}
